According to patent US20120172315A1 (CENTRE NATIONAL DE LA RECHERCHE SCIENTIFIQUE, published 2012):

Molecular target: eIF4E in B lymphocytes from patients suffering from CLL (human (patients' cells);  for …, UniProt P06730 2-217, limits assumed)
Assay: cell-based or functional assay

eIF4E in B lymphocytes from patients suffering from CLL, sequence (P06730 2-217 limits assumed): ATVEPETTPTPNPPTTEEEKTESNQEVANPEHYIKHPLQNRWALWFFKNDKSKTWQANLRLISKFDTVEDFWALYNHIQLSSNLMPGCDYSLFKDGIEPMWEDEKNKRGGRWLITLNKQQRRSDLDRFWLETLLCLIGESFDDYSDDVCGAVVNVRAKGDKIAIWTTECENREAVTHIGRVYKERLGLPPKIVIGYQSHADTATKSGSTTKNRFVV

B1: A1 WT IRS peptide (peptide)
peptide: RRKYGRDFLLRFRYIRS
- IC50, defined as the concentration of peptide capable of causing the death of 50% of the cells after 24 H (CLL cells): ~28 µM
- IC50, defined as the concentration of peptide capable of causing the death of 50% of the cells after 24 H (CLL cells, second patient): 24 µM
